Assay results taken from publication PMC9765439, “Systems-Wide Dissection of Organic Acid Assimilation in Pseudomonas aeruginosa Reveals a Novel Path To Underground Metabolism” (mBio, 2022).

B1: citrate synthase GltA from Pseudomonas aeruginosa (enzyme, UniProt P14165 1-428, looked up)
chain: MADKKAQLIIEGSAPVELPVLSGTMGPDVVDVRGLTATGHFTFDPGFMSTASCESKITYIDGDKGVLLHRGYPIEQLAEKSDYLETCYLLLNGELPTAAQKEQFVGTIKNHTMVHEQLKTFFNGFRRDAHPMAVMCGVIGALSAFYHDSLDINNPKHREVSAHRLIAKMPTIAAMVYKYSKGEPMMYPRNDLNYAENFLHMMFNTPCETKPISPVLAKAMDRIFILHADHEQNASTSTVRLAGSSGANPFACIASGIAALWGPAHGGANEAVLRMLDEIGDVSNIDKFVEKAKDKNDPFKLMGFGHRVYKNFDPRAKVMKQTCDEVLQELGINDPQLELAMKLEEIARHDPYFVERNLYPNVDFYSGIILKAIGIPTSMFTVIFALARTVGWISHWQEMLSGPYKIGRPRQLYTGHTQRDFTALKDRG
notes: citrate synthase GltA of Pseudomonas aeruginosa; PCR-amplified ORF of gltA cloned into pET-19m; printed length 429 amino acids; The hexamer is that of the crystal's asymmetric unit; also called GltAPa; citrate (CIT) synthase; source: E. coli, purified (Ni-NTA, His6 tag cleaved with TEV protease); not shown: His6, N-terminal, cleaved
B2: 2-methylcitrate synthase PrpC from Pseudomonas aeruginosa (enzyme)
chain: MAEAKVLSGAGLRGQVAGQTALSTVGQEGAGLTYRGYDVRDLAAAAIFEEVAYLLLYGELPNKQQLDAYLKKLQGQRDLPQALKEVLERIPKDAHPMDVMRTGASVLGTLEPELSFDQQRDVADRLLAAFPAIMTYWYRFTHEGQRIDCNSDEPTIGGHFLALLHGKKPSELHVKVMNVSLILYAEHEFNASTFTARVCASTLSDLYSCVTGAIGSLRGPLHGGANEAAMELIERFSSPQEATAELLKMLERKDKIMGFGHAIYKDSDPRNEVIKGWSKQLADEVGDKVLFAVSEAIDKTMWEQKKLFPNADFYHASAYHFMGIPTKLFTPIFVCSRTSGWTAHVFEQRANNRIIRPSAEYTGVEQRAFVPLEQR
notes: 2-methylcitrate synthase PrpC of Pseudomonas aeruginosa; PCR-amplified ORF of prpC cloned into pET-19m; printed length 376 amino acids, theoretical monomer mass 41.7 kDa; also called PrpCPa; 2-MCS; source: E. coli, purified (Ni-NTA, His6 tag cleaved with TEV protease); not shown: His6, N-terminal, cleaved

Experiments:
[1] = biological target: the molecule itself; assay: crystal structure; GltA apo, 20 to 25 mg/mL, sitting drop vapor diffusion, 19°C
[2] = biological target: the molecule itself; assay: crystal structure; PrpC apo and oxaloacetate-bound (2.5 mM oxaloacetate) crystals; sitting drop, 100 to 200 mM Bis-Tris pH 5.5, 20 to 30% PEG 3350, 0.1% D-xylose, 19°C

| Protein | stoichiometry N [1] | stoichiometry N [2] |
| --- | --- | --- |
| B1 | 6 | – |
| B2 | – | 2 |
